US20220119534A1 (DRAGONFLY THERAPEUTICS, published 2022)
Positions count from the first letter of the chain named. In names and notes the source's numbering stands. Several values for one entry are separate records, joined by “and”; a condition that tells them apart may be missing. Equal entries are not always repeated. Values belong to the binder of their own block, whether it stands above or below them.

Experiments:
[1] = biological target: T1, Human CD16a V158 (FcγRIIIa V158) (human, UniProt P08637 17-208, biotinylated (site not stated)); test: SPR; biotinylated CD16a V158 captured on SA chip, TriNKET as analyte; 1:1 kinetic fit; control, n=3
T1 construct: V158 is the allele name in mature numbering; also called hCD16aV; hCD16a V158

mFc-hNKG2D = biological target: T2, mFc-hNKG2D (human, UniProt P26718 73-216); test: SPR Biacore 8K 37 C; mFc-hNKG2D captured on anti-mFc chip, TriNKET as analyte; 1:1 kinetic fit
T2 construct: extracellular domain; Made in house (Dragonfly Tx); the order of tag and ECD follows the name mFc-hNKG2D; also called mFc-tagged human NKG2D; not shown: mouse Fc tag
T2 sequence (looked up): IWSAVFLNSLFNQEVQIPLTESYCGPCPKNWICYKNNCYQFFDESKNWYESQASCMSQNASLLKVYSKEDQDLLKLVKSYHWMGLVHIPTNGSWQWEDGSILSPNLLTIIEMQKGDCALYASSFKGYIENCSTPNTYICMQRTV

Human CLEC12A-His = biological target: T3, Human CLEC12A-His (human, UniProt Q5QGZ9 65-265); test: SPR Biacore 8K 37 C; TriNKET captured on anti-hFc chip, hCLEC12A-His as analyte; 1:1 fit; control sample, n=2
T3 construct: Recombinant soluble protein made in house (Dragonfly Tx); The hCLEC12A spot of the HuProt array is written under this molecule as well; also called hCLEC12A-His; hCLEC12A; not shown: His tag
T3 sequence: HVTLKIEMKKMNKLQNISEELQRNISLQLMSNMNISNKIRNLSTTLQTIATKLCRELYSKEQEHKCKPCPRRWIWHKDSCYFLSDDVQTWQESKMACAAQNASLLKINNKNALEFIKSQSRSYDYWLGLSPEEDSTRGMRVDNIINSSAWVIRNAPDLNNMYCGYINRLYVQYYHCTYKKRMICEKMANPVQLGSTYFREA

mFc-cNKG2D = biological target: T4, mFc-cNKG2D (cynomolgus monkey, UniProt P61252 73-216); test: SPR Biacore 37 C; mFc-tagged cyno NKG2D dimer, TriNKET as analyte; 1:1 kinetic fit
T4 construct: extracellular domain; Made in house (Dragonfly Tx); also called recombinant cyno NKG2D extracellular domain (ECD); mFc-tagged cyno NKG2D dimer; not shown: mouse Fc tag
T4 sequence (looked up): T2 sequence (looked up) with D43N, T133I

Human CD16a F158 = biological target: T5, Human CD16a F158 (human, UniProt P08637 17-208, biotinylated); test: SPR, summary of FcγR affinities
T5 construct: Bought recombinant receptor; also called hFcγRIIIa F158

Human CD16a V158 = biological target: T6, Human CD16a V158 (human, UniProt P08637 17-208, biotinylated); test: SPR, summary of FcγR affinities
T6 construct: Bought recombinant receptor; also called hCD16a (V158); hFcγRIIIa V158

Human CD32a R131 = biological target: T7, Human CD32a R131 (human, UniProt P12318 36-218, limits assumed, biotinylated); test: SPR, summary of FcγR affinities
T7 construct: Bought recombinant receptor; also called hFcγRIIa R131
T7 sequence (looked up): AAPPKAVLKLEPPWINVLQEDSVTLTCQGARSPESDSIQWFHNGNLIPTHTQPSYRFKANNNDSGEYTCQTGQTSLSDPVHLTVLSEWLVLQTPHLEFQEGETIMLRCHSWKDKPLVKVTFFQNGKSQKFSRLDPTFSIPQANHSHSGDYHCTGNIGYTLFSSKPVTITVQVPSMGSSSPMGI

Cynomolgus CD64 = biological target: T8, Cynomolgus CD64 (cynomolgus monkey, UniProt A0A2K5U901 33-309, Probably biotinylated for capture, as in the sister examples (p-1094).); test: SPR, summary of FcγR affinities
T8 construct: Bought recombinant receptor; also called cFcγRI; Cynomolgus CD64 (FcγRI); not shown: The vendor's biotinylation and purification tag

Cynomolgus FcRn = biological target: T9, Cynomolgus FcRn (cynomolgus monkey, UniProt Q8SPV9 24-297; Q8SPW0 21-119); test: SPR, steady state fit; average for AB0192
T9 construct: Bought recombinant receptor; also called cFcRn; Cyno FcRn

Human FcRn = biological target: T10, Human FcRn (human, UniProt P55899 24-297; P61769 21-119); test: SPR, steady state fit; average for AB0192
T10 construct: Bought recombinant receptor; also called hFcRn

[2] = biological target: T11, Human CLEC12A-His (recombinant, K244 WT) (human, UniProt Q5QGZ9 65-265); test: SPR, two-state fit; control sample
T11 construct: Made in house (Dragonfly Tx); also called hCLEC12A; hCLEC12A-His; not shown: His tag
T11 sequence: T3 sequence

[3] = biological target: T11, Human CLEC12A-His (recombinant, K244 WT); test: SPR, two-state fit (ka1); after forced oxidation
[4] = biological target: T12, mFc-hNKG2D (recombinant mFc-tagged human NKG2D dimer) (human, UniProt P26718 73-216); test: SPR 37C, mFc-hNKG2D captured, 1:1 kinetic fit
T12 construct: extracellular domain; Made in house; not shown: mouse Fc tag
T12 sequence (looked up): T2 sequence (looked up)

[5] = biological target: T13, recombinant cynomolgus FcRn (cynomolgus monkey, UniProt Q8SPV9 24-297; Q8SPW0 21-119); test: SPR 25C, pH 6.0, steady state; pH 6.0; second replicate
T13 construct: also called cFcRn; cyno FcRn

recombinant human CD64 = biological target: T14, recombinant human CD64 (human, UniProt P12314 16-288, biotinylated); test: SPR 25C, kinetic fit
T14 construct: also called hFcγRI; hCD64
T14 sequence (P12314 16-288 limits assumed): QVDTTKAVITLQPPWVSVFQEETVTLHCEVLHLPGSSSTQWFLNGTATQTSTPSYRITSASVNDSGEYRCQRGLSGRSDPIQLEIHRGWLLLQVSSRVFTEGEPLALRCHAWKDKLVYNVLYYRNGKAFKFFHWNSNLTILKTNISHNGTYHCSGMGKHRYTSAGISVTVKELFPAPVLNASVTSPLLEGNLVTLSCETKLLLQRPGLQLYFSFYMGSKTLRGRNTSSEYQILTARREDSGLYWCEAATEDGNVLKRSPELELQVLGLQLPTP

T1 sequence (P08637 17-208 F176V limits assumed): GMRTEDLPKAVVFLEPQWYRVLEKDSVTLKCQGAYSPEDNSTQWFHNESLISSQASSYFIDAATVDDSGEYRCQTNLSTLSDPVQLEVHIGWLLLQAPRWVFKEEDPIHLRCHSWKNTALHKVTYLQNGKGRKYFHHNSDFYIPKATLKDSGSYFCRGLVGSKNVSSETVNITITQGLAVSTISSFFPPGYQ
T6 sequence (P08637 17-208 F176V limits assumed): as above
T8 sequence (A0A2K5U901 entry or part of it limits assumed): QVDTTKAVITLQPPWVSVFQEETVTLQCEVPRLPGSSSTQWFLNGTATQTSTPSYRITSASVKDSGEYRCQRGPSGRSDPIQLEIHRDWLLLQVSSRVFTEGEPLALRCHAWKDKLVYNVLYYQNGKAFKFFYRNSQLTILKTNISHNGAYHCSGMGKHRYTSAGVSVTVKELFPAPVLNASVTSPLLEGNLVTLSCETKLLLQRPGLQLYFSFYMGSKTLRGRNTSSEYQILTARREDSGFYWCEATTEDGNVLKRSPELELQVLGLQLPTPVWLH
T9 sequence (Q8SPV9 24-297 limits assumed, chain 1 of 2): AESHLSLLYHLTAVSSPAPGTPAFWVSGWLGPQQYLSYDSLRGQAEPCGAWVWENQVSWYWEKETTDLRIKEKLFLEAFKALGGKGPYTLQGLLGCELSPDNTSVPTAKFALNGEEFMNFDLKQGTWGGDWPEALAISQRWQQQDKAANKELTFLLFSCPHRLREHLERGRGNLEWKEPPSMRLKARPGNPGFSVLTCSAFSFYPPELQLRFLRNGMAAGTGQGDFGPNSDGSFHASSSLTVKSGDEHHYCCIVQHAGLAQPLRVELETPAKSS
T9 sequence (Q8SPW0 21-119 limits assumed, chain 2 of 2): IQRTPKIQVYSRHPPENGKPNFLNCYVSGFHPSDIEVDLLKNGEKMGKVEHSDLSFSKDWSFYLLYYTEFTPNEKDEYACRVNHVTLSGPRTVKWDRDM
T13 sequence (Q8SPV9 24-297 limits assumed, chain 1 of 2): as the sequence (Q8SPV9 24-297 limits assumed, chain 1 of 2) above
T13 sequence (Q8SPW0 21-119 limits assumed, chain 2 of 2): as the sequence (Q8SPW0 21-119 limits assumed, chain 2 of 2) above
T5 sequence (P08637 17-208 limits assumed): as the sequence (P08637 17-208 F176V limits assumed) above, with V160F counted along it

Kd (Human CD16a F158): 680 nM | Kd (Human CD16a V158): 178 nM | Kd (Human CD32a R131): 1400 nM | Kd (Cynomolgus CD64): 1.9 nM | Kd (Cynomolgus FcRn): 1400 nM | Kd (Human FcRn): 1500 nM
B2: AB0192 TriNKET (other)
chain: EVQLVESGGGVVQPGGSLRLSCAASGFTFNAFGMHWVRQAPGKCLEWVAFISSGSTSIYYANTVKGRFTISRDNSKNTLYLQMNSLRAEDTAVYYCARDGYPTGGAMDYWGQGTSVTVSSGGGGSGGGGSGGGGSGGGGSDIQMTQSPSSLSASVGDRVTITCKASQDIYNYLSWFQQKPGKAPKPLIYRANILVSGVPSRFSGSGSGQDYTFTISSLQPEDIATYYCLQFDAFPFTFGCGTKLEIKGSDKTHTCPPCPAPELLGGPSVFLFPPKPKDTLMISRTPEVTCVVVDVSHEDPEVKFNWYVDGVEVHNAKTKPREEQYNSTYRVVSVLTVLHQDWLNGKEYKCKVSNKALPAPIEKTISKAKGQPREPRVYTLPPCRDELTKNQVSLTCLVKGFYPSDIAVEWESNGQPENNYKTTPPVLVSDGSFTLYSKLTVDKSRWQQGNVFSCSVMHEALHNHYTQKSLSLSPG
heavy: EVQLVESGGGLVKPGGSLRLSCAASGFTFSSYSMNWVRQAPGKGLEWVSSISSSSSYIYYADSVKGRFTISRDNAKNSLYLQMNSLRAEDTAVYYCARGAPIGAAAGWFDPWGQGTLVTVSSASTKGPSVFPLAPSSKSTSGGTAALGCLVKDYFPEPVTVSWNSGALTSGVHTFPAVLQSSGLYSLSSVVTVPSSSLGTQTYICNVNHKPSNTKVDKKVEPKSCDKTHTCPPCPAPELLGGPSVFLFPPKPKDTLMISRTPEVTCVVVDVSHEDPEVKFNWYVDGVEVHNAKTKPREEQYNSTYRVVSVLTVLHQDWLNGKEYKCKVSNKALPAPIEKTISKAKGQPREPQVCTLPPSRDELTENQVSLTCLVKGFYPSDIAVEWESNGQPENNYKTTPPVLDSDGSFFLYSWLTVDKSRWQQGNVFSCSVMHEALHNHYTQKSLSLSPG
light: DIQMTQSPSSVSASVGDRVTITCRASQGISSWLAWYQQKPGKAPKLLIYAASSLQSGVPSRFSGSGSGTDFTLTISSLQPEDFATYYCQQGVSFPRTFGGGTKVEIKRTVAAPSVFIFPPSDEQLKSGTASVVCLLNNFYPREAKVQWKVDNALQSGNSQESVTEQDSKDSTYSLSSTLTLSKADYEKHKVYACEVTHQGLSSPVTKSFNRGEC
notes: the condition stands under assay; also called AB0192 Lot AB0192-005

Kd [2]: 0.7 nM | kon [3]: 9.93e+06 M⁻¹ s⁻¹ | Kd [4]: 872 nM and 892 nM and 880 nM | koff [4]: 0.141 s⁻¹ and 0.142 s⁻¹ and 0.146 s⁻¹ | kon [4]: 161000 M⁻¹ s⁻¹ and 159000 M⁻¹ s⁻¹ and 166000 M⁻¹ s⁻¹
B3: AB0089 TriNKET (bispecific antibody, human IgG1, kappa)
chain: QLQLQESGPGLVKPSETLSLTCTVSGFSLTNYGLHWIRQPPGKCLEWIGVIWVGGATDYNPSLKSRVTISVDTSKNQFSLKLSSVQAADTAVYYCAKGDYGDTLDYWGQGTLVTVSSGGGGSGGGGSGGGGSGGGGSDIQMTQSPSSLSASVGDRVTITCHASQNINFWLSWYQQKPGKAPKLLIYEASNLHTGVPSRFSGSGSGTDFTLTISSLQPEDFATYYCQQSHSYPLTFGCGTKLEIKGSDKTHTCPPCPAPELLGGPSVFLFPPKPKDTLMISRTPEVTCVVVDVSHEDPEVKFNWYVDGVEVHNAKTKPREEQYNSTYRVVSVLTVLHQDWLNGKEYKCKVSNKALPAPIEKTISKAKGQPREPRVYTLPPCRDELTKNQVSLTCLVKGFYPSDIAVEWESNGQPENNYKTTPPVLVSDGSFTLYSKLTVDKSRWQQGNVFSCSVMHEALHNHYTQKSLSLSPG
heavy: B2 heavy
light: B2 light
notes: F3' format heterodimer of three chains; human IgG1 Fc with EW-RVT and Y349C/S354C mutations; also called AB0089 Lot AB0089-002; CLEC12A TriNKET AB0089

The next lines start with the binder.

B1: F3'-1602 TriNKET (bispecific antibody, human IgG1, kappa)
chain: B3 chain with V53S, A56K, V71K, G98Y, G101D, T103S, D207R, F220I
heavy: B2 heavy
light: B2 light
notes: Trispecific F3' format: CLEC12A scFv-Fc paired with NKG2D Fab-Fc; Stressed and control samples of the stability studies are the same molecule; also called AB0237
Kd [1]: 212 nM | koff [1]: 0.024 s⁻¹ | kon [1]: 113000 M⁻¹ s⁻¹ | koff (mFc-hNKG2D): 0.126 s⁻¹ and 0.13 s⁻¹ and 0.131 s⁻¹ and 0.132 s⁻¹ | kon (mFc-hNKG2D): 180000 M⁻¹ s⁻¹ and 184000 M⁻¹ s⁻¹ and 175000 M⁻¹ s⁻¹ | Kd (Human CLEC12A-His): 1.11 nM | koff (Human CLEC12A-His): 0.000873 s⁻¹ | kon (Human CLEC12A-His): 791000 M⁻¹ s⁻¹ | koff (mFc-cNKG2D): 0.147 s⁻¹ and 0.136 s⁻¹ and 0.145 s⁻¹ and 0.135 s⁻¹ | kon (mFc-cNKG2D): 177000 M⁻¹ s⁻¹ and 164000 M⁻¹ s⁻¹ and 156000 M⁻¹ s⁻¹ and 176000 M⁻¹ s⁻¹

B4: F3'-1602 TriNKET (other)
chain: B3 chain with V53S, A56K, V71K, G98Y, G101D, T103S, D207R, F220I
heavy: B2 heavy
light: B2 light
notes: CLEC12A scFv-Fc, NKG2D A49MI Fab-Fc, human IgG1 Fc; also called AB0237
Kd [5]: 1100 nM | Kd (recombinant human CD64): 5.2 nM and 5.3 nM | koff (recombinant human CD64): 0.00027 s⁻¹ and 0.00028 s⁻¹ and 0.00026 s⁻¹ | kon (recombinant human CD64): 53000 M⁻¹ s⁻¹ and 52000 M⁻¹ s⁻¹ and 51000 M⁻¹ s⁻¹
